# Assay results reported in a protein production outcome set (Wang et al. 2014).
# Test: label from the status in PepcDB records
row,Sequence,protein production
1,MFEFISLDRDGVLYIAAFLVIIRSVSLYIFSKGNNVDKANVNILMLVFFLLFMTASSLSSWPLIYFLALFFVGSIISFTWFTYSGMITPFGSGLTAISTTLLLCLLSYMLSFYETFVEHGFQAIFIAIFLFSIITSIYSFYYLPFSQNSLFYLNFKRNKKVMHIQSVSEVYSPKVTIHLPCYSEPPEIVINTLNSISALDYDNYEVIVIDNNTRDETLWKPVEKHCSMLGEKFRFYHVPVLAGAKAGALNYALKITSSDTELIAVIDADYITEPDFIRRYVKIFKDENVGFVQTSHDYYNHQSSPVMEGAYYFWTLFHKIELPSYTEINAAFTVGTMCILRRNILEKVGGWDETALTEDSELAVRMHAQGYIGYVFADTVGRGLIPTTFSDMKKQQVRWTAGPVQQLLKHWRLYFGFSSENKMTLNQRVMEIRHSTSRIKPVFSLISLHIMVVVSFFLLSGNVYLSIPYEFIVFFLCMLISTFIEKMAYFRLFNCSGILPVFYHGIMARALEWTFIYGVISSLFGFSMKWDRTNKFENSKSIKRAFLASKIEVVMSVFFFLYSFFLLSGNHSGYNDFVFLTGIACLVKGIGFLCALLVASLLENNLRILEAP,failed
2,MFELLFLLLPIAALYGWYIGRLSVKKEQESINNKFSRDYVTGLNFLLSNQQEKAVDLFLSMLQKQESENQIATESQFEAELTLGNLFRSRGEVDRALRIHQALDSSLNYSIEQKLLAKQQLAKDFMAAGFYDRAENYYILLLDEPEFAVNSLTQLMVLYQKTNEWKKAINVAEKLLKIDPKTDRIPLSHYYCEYAQAIKSEDEDLYLRLLGKALEYSPLCTRASMLLGDYYLAQGQFSQALTHFEHILVQDPDYISEVLHNIKTCHAALHDFINYELFLIRSNQVKHNSSVDIALAELIEQKDGLIAAHSKLYQQLSKYPSMLIFHRFIYYQINEAEEGSAKESLVLLHNMVGARIKKSFQYRCLNCGYQSYRLSWYCPSCRQWEQIKPINGIDSY,failed
3,MFELWYIHISLAIVSAIFSILIFLEFKSLRKEFHGKLSGVLLLISVLLLFESVVNAVAFSMWSYGHDPVYVYPSMAIAIVSTSVIILFYYYVAKV,failed
4,MFEMGIQELVKTIDTNINHMISLSVLNLAQLGIKYGIFKAVASRPSYEELLSQIPVPNKPLLKKLIEHLKALGIIEETPSNLILNGFSYVLKFPKEDYMLLLSDWIPIWEEIYKMVDFALISYSHPYVLMDFDKDADFWDIRLSSSFNKTYRDAIINLGEIREDSYILDLGCGSVSPAYFGKFISEDGKYVGVDYSPGLLEIARERVERNGLPAELKEMDVSLIRTRSKYDVAIMSFLLEYVRDREEVLGKVLEALDSGGKLIIVEAFRDEFENIQAMEFFESLNRSFVGYPAKAEIKKAILREGFDVSFEDYGKSILVVRKL,failed
5,MFENTLVVIKGAGDIATGVGRRLFRCGFPLVMTEQLQPTPVRRTVAFAEAVYKGETTVEGVTARLIEDPAHVYSTLREGHIPIIPDPEAHIIRVLNPKVVVDAILAKKNLGTAKSNAPIVIGLGPGFTAGKDVHAVIETNRGHNLGRVILNGSAEPNTGVPGVVNGYGSERVLRSPADGAIVPIREIGDFLLKGDVIAVVEGEPVVAPFDGTLRGLVHEKVTVFKGMKIGDVDPRASREHCYTISDKALAISGGVLEAILSHRHVITE,failed
6,MFERFDSDRSRYASLGVVSSLPSGLIDSIWLIIDLNLKGVIPLNDLLHFDLLNNNGKVTVHFSQENSSVEMAIDLPFSYSTAYPSRIFAFDDGHRETILLPAEMLES,not failed
7,MFERFTEKAIKVITLAQEEARRLGYNFFGTEHILLSLIGEGTGIAAKVLKSMGINLKDARVEVEKIIGRGSGFVVVEIPFTPRKACAGFVTRGSSTTRHKGIAVRVLEILGADPSNIRTQVNAPILVNSQQALVAEVMETATWQVGNTRRGKLDPVVGRQPQIKRVVQILARRTCRNNACLIGKPGVGKRAIAEGIAQRIASGDVPETIKGKMNVAGNCGWNEIRWRSRGKIEEVYGQSDDIILFIDEMHLLIGAGAVEGAIDAANILKPALERCELQYRKHIENDPALERRFQPVKVPEPTVEEAIQITTVLAKGKEVNKADNEAEEGRPTVTEADNEAE,failed
8,MFESLNKVINGYGLISGFAIIGVTMAVSYWLSARLTRGRLHGSAIAIFLGLVLSYVGGVATGGQKGLVDVPLMSGIGLLGGAMLRDFAIVATAFGVNVEELRRAGVSGVVSLFLGVGSSFVAGVAVAMAFGYTDAVSLTTIGAGAVTYIVGPVTGAALGASSEVMALSIAAGLVKAILVMVLTPFVAPYIGLNNPRTAVIFGGLMGTSSGVAGGLAATDPKLVPYGCLTAAFYTAIGCLLGPSLLYFSVRGLVG,failed
9,MFFKQFYDKHLSQASYLIGCQKTGEAMIIDPIRDLSSYIRVADEEGLTITHAAETHIHADFASGIRDVAIKLNANIYVSGESDDTLGYKNMPNHTHFVQHNDDIYVGNIKLKVLHTPGHTPESISFLLTDEGAGAQVPMGLFSGDFIFVGDIGRPDLLEKAVKVEGSSEIGAKQMFKSIESIKDLPDYIQIWPGHGAGSPCGKSLGAIPTSTLGYEKQTNWAFSENNEATFIDKLISDQPAPPHHFAQMKKINQFGMNLYQPYTVYPATNTNRLTFDLRSKEAYHGGHIEGTINIPYDKNFINQIGWYLNYDQEINLIGDYHLVSKATHTLQLIGYDDIAGYQLPQSKIQTRSIHSEDITGNESHILDVRNDNEWNNGHLSQAVHVPHGKLLETDLPFNKNDVIYVHCQSGIRSSIAIGILEHKGYHNIINVNEGYKDIQLS,not failed
10,MFFMLFVLRIPAAFTLMMVGFLGIATVTTWDAALAMLGSELWGSFSNYGLTVIPLFILVGEIVHYAGYNNSLYHATYKWFGHKRGGLAMTTILASAAFSAISGSNTATAATMSAVAIPAMKEYKYHPLLNAGSVAAGATLGVLIPPSIVLVVYGLYTGQSIGKLFFGNVIPSAILTILILLTVVWICRRHPDWGPEGPRSGWGERFAALPEAIDILILFAIIMYALFTGVVTATEAAAVSCFLALVICGLRRKLTWKKLTGALVDTLRISCMVFMIVAGAVIFAKFLTITRLPYETAEWISSLDLPRWMVLWVILACYIIGGCIMDALAFLLVSLPIFYPLVTQLGYDPIWFGQVITIVTTMGSIMPPIGICCYVVSGMSGIPLGTVFRSGLYYMPSYIASIAILMVSPYWTVLVLADLVK,failed
11,MFFMQNTKSIYIIIPVHNRREVTLQCLTTLKLNEDLDQYRIVVVDDDSTDGTREAVNAQFPQVIVLEGDGNLWWTGAVKMGMKYAYEQGGELFILLNDDCYPQMGTISKLLKKIDENPNSVIGVQCLDPKSKEPSYGGILTNNNKLQVVKIFHTFNSMTDCDALNGNLLAIPRNIVDKVGFPDAKRFPHHFGDFVYTNRIKKEGYKLFLCNDIVALCEYHYNGLSKKSSQFNRFQELFTPTSQFYWKTEMKGYIELFGIKGIIIYLHKRCLLSSLKVIFLLLDQKLTL,failed
12,MFFRSIRFSLTLWYAVTLAVILVLFSSFIYLVLSNQLNKGIDRELLTVAEAVASPTLEPFRHAAPSVFDQVLEDFIGTRLTGKHVQVLDGSGAVAASSKSMEELRIPLGKTALRRVQAGKVSYETRVNLDVYPVRTIVYPIMTDGRLDQIVLVGTSMRGPAETLEKVQLVFAVSIPLALILWSLGGWFLAGRALKPVDLITRSARKITAENLGLRLEVINPQDEIGRLATTFNDTLERLENAFNRIRQFTGDVSHELRTPLTILRGEAEVGLKWAKEPEEFRELLRSNLEEINRMSKIIETLLELSRVEGGVKLELADLDLSDLLAELVQQSRLIAPDKSLRIAFVGQEPVTILGDWLRLRQVFMNLLDNAVKYTPADGEISVVVDTTGDSARVAIIDSGPGIPPEDLPHIFERFYRVDKARNRADGGCGLGLSLVKTFVEAHGGRIEVVSEAGKGSIFTVLLPRVVAG,not failed
13,MFFVNRRLIKRVFLGFAVIALLLPLVLKQSFEITAEVIVQSKKLSQTDANTVLAPDSDKFIPPSLADMETESNILRSPTLIRDTIDQLRREGQFGGSEGLLTRLIVKPIRNGLIDPLRNHVINPVRGFFGLAVDPVRDTSLDAFTDQAVKDLKIGTLPGSNVISIVYASPNAAEGTRFVERLLANYLKNRQDLQSNELPEAFYEQKKAQYQSRLDDLEGKRQALLEAAHASDPKEEITFRLNAINTEEQSLNGYRDQALENQRRLDYLQKNLAAARKAGLTDYTFPFAFANTVDNVAYEDREIKQLGEQLTNLVSQYGTTADTYRADSVPMQQQREQIVRARAQFLKVVENRVRERSSDLQITQSVIAQKTARINDYKARVRDLQEVLSKLRQLDTEIDALHKAFFTYTQRYEESRGERLISGELSNARVLSQPYEPSEAAFPKPMLIIPLGLLTGLLLAIALGYVYEFFDHRFKHPAQVSDHLGLPVLMVLNAVEQPQVNPYPRWTWRWAWHWAKQ,failed
14,MFGAELVIVLLAIYLGARLGGIGIGFAGGLGVLVLTLIFQIKPGAIPFDVIEIIMAVIAAIAAMQVAGGMDYLVSLAERMLRRHPKYITFLAPLVTWFMTVLAGTGHTAFSTLPVITEVAKEQGIRPSRPLSIAVVASQIAITASPISAAVVFFAGILEPLGVSYLTLLAICIPVTLLAVMLTAIVCNFLGCELKDDPVYQERLAKGEVRLRGSQVFELQPHAKRSVLLFLIGIVAVMFYATAISDTVGLIKNPVLPRNEAIVVFMLTIATLISITCKIDTGEVLNASTFKSGMSACVCVLGVAWLGDTFVKAHISDIQAVAGDLLHNYPWLLAVVLFFAATLLYSQAATTKALMPAALLLGVSPLTAIASFAAVSALFVLPTYPTLLAAVEMDDTGSTRIGKYVFNHAFLIPGVIAITLCVILGFIFGGIML,failed
15,MFGCLVAGRLVQTDAQQVASDKFVFNLPDYEHVNHVVVFLLGTVPFPEGLGGAVYLCVPGGAAGQVWQLLGFITNEKPSAIFRISGLKAGEGSSHPFGMMDAPAAPSMAQVGVSVEGLHLLAQQTPVSSSAVSTLDSFTQFTQKMLDSLFNFTSSFALSQSRMSPNPSEMFIPASSIRRWYENFQRRLMQNPNFWKT,failed
16,MFGCPKDLLNGPCGGALDGKCEVNSNLCPWYSLMEKFELLDGAPLLVEHPVVLEMERIFEGEEVEIKRSSFIKNLGRGKAISVEFPIRLFEKGVREFRKVGDLYTIPDNPLGYPHISPTALGTWLKSKGHSVMPHLTAKDRNVIAISSEFRTALEFDFEGILITTGDWSGFILQGKPVFDLDSANMIRLAKLMFSGVLPTGERVEVKERPFIAGTVNPNYPAKLEGKRLARKIIAGADLVISQVVANRKVVREIPKILQEALKYSPHEVPVVVSILYPLKRELEPILRKMGIKTGDDIRAIVEEISSLEFGGINVIVFEETRWEEKLNEVLDLLKELL,failed
17,MFGLGGEAMIKTQVVKLKVNKTMQKHLDALCDYRRYCWNKGLETWQLMYEAHTLTTKDNPSPNERRVRDELVAGKADWQYDLSARCLQLAIKDLANAWKNFLDKAQPDWGKPRFKSKKAPRQGFKTDRAEIVNGKLRLDKPWSIAKDNWFDLASYEALKMRKVKIASIFKEKGLYYAALTYEENIPAKAKTHKKTAIDVNVGHFNYTDGLINVLPVRLQKLYKRIKHYQRMLARKREINGKLATKTNNYLAVRAKLQRDYRKVVNIQNDLLQKFTTRLVNDYDQIVIEDLAVKEMMMTHVASKGMQRSLFGKFRQILTYKCDWYNKELILASKMYPSTQRCAKCGYVKKGDEKITLQGNQKHGTKHNEYICYRCGYTNDRDENAVLNLLALAK,failed
18,MFIPQIVPIRDLKNTSAISNLCHKTNEPIFITKNGYGDMVIMSMETYEGNAFFNNLYGNLEEAEMDLQNGRVSGIDEAIEEIKSRYDL,failed
